# Data published in PMC6608616 (IUCrJ, 2019).
# B1: Tryptophan synthase α subunit (TrpA) from Streptococcus pneumoniae (enzyme)
# chain: MPKTLTEKLNAIKAAGKGIFVPYIMAGDHEKGLDGLAETIHFLEDLGVSAIEVGIPFSDPVADGPVIEEAGLRSLAHGTSTQALVETLKTIETEIPLVIMTYFNPLFQYGVENFVKDLADTAVKGLIIPDLPHEHANFVEPFLANTDIALIPLVSLTTGIERQKELIEGAEGFIYAVAINGVTGKSGNYRADLDKHLAQLHQVADIPVLTGFGVSSQADLERFNAVSDGVIVGSKIVKALHQGEPIQDFIRQAVAYQK
# Biological target: Tryptophan synthase β subunit (TrpB) from Streptococcus pneumoniae (Streptococcus pneumoniae TIGR4, UniProt Q97P32 4-407, PLP covalently attached to Lys91)
# Assay: crystal structure
# Settings: both partners purified
binder,measurement,value
B1,binding result,binds
